# Experimental data: patent US20080138335A1 (Kyowa Kirin, published 2008)
# B1: 4D11-G[3311] (antibody, V domains shown)
# VH: QLQLQESGPGLLKPSETLSLTCTVSGGSISSPGYYGGWIRQPPGKGLEWIGSIYKSGSTYHNPSLKSRVTISVDTSKNQFSLKLSSVTAADTAVYYCTRPVVRYFGWFDPWGQGTLVTVSS
# VL: AIQLTQSPSSLSASVGDRVTITCRASQGISSALAWYQQKPGKAPKLLIYDASNLESGVPSRFSGSGSGTDFTLTISSLQPEDFATYYCQQFNSYPTFGQGTKVEIK
# notes: also called IgG[3/3/1/1]; N5KG3311; not shown: human IgG3 heavy chain constant region, CH1 and hinge domains (EU 118-237), from vector N5KG3; human IgG1 heavy chain constant region, CH2 and CH3 domains (EU 238-446), from vector N5KG1
# B2: 4D11-G[3313] (antibody, V domains shown)
# VH: QLQLQESGPGLLKPSETLSLTCTVSGGSISSPGYYGGWIRQPPGKGLEWIGSIYKSGSTYHNPSLKSRVTISVDTSKNQFSLKLSSVTAADTAVYYCTRPVVRYFGWFDPWGQGTLVTVSS
# VL: AIQLTQSPSSLSASVGDRVTITCRASQGISSALAWYQQKPGKAPKLLIYDASNLESGVPSRFSGSGSGTDFTLTISSLQPEDFATYYCQQFNSYPTFGQGTKVEIK
# notes: also called IgG[3/3/1/3]; N5KG3313; not shown: human IgG3 heavy chain constant region, CH1 and hinge domains (EU 118-237), from vector N5KG3; human IgG1 heavy chain constant region, CH2 domain (EU 238-340), from vector N5KG1 by way of N5KG3311; human IgG3 heavy chain constant region, CH3 domain (EU 341-446), from vector N5KG3
# B3: 4D11-G[3331] (antibody, V domains shown)
# VH: QLQLQESGPGLLKPSETLSLTCTVSGGSISSPGYYGGWIRQPPGKGLEWIGSIYKSGSTYHNPSLKSRVTISVDTSKNQFSLKLSSVTAADTAVYYCTRPVVRYFGWFDPWGQGTLVTVSS
# VL: AIQLTQSPSSLSASVGDRVTITCRASQGISSALAWYQQKPGKAPKLLIYDASNLESGVPSRFSGSGSGTDFTLTISSLQPEDFATYYCQQFNSYPTFGQGTKVEIK
# notes: also called IgG[3/3/3/1]; N5KG3331; not shown: human IgG3 heavy chain constant region, CH1, hinge and CH2 domains (EU 118-340), from vector N5KG3; human IgG1 heavy chain constant region, CH3 domain (EU 341-446), from vector N5KG1
# B4: 4D11-G3[E356D] (antibody, V domains shown)
# VH: QLQLQESGPGLLKPSETLSLTCTVSGGSISSPGYYGGWIRQPPGKGLEWIGSIYKSGSTYHNPSLKSRVTISVDTSKNQFSLKLSSVTAADTAVYYCTRPVVRYFGWFDPWGQGTLVTVSS
# VL: AIQLTQSPSSLSASVGDRVTITCRASQGISSALAWYQQKPGKAPKLLIYDASNLESGVPSRFSGSGSGTDFTLTISSLQPEDFATYYCQQFNSYPTFGQGTKVEIK
# notes: One-amino acid variant of 4D11-G3; also called IgG3-[E356D]; N5KG3-E356D; not shown: human IgG3 heavy chain constant region, from vector N5KG3
# B5: 341-G [2/2/1/1] (antibody)
# heavy: QVQLQQSGPGLVKPSQTLSLTCAISGDSVSSNSATWNWIRQSPSRDLEWLGRTYYRSKWYRDYVGSVKSRIIINPDTSNNQFSLQLNSVTPEDTAIYYCTRAQWLGGDYPYYYSMDVWGQGTTVTVSS
# VL: EIVLTQSPATLSLSPGERATLSCRASQSVSSYLAWYQQKPGQAPRLLIYDASNRATGIPARFSGSGSGTDFTLTISSLEPEDFAVYYCQQRSNTFGPGTKVDIK
# notes: also called IgG[2/2/1/1]; N5KG2211; not shown: human IgG2 heavy chain constant region, CH1 and hinge domains (EU 118-237), from vector N5KG2; human IgG1 heavy chain constant region, CH2 and CH3 domains (EU 238-446), from vector N5KG1
# B6: 4D11-G3[M358L] (antibody, V domains shown)
# VH: QLQLQESGPGLLKPSETLSLTCTVSGGSISSPGYYGGWIRQPPGKGLEWIGSIYKSGSTYHNPSLKSRVTISVDTSKNQFSLKLSSVTAADTAVYYCTRPVVRYFGWFDPWGQGTLVTVSS
# VL: AIQLTQSPSSLSASVGDRVTITCRASQGISSALAWYQQKPGKAPKLLIYDASNLESGVPSRFSGSGSGTDFTLTISSLQPEDFATYYCQQFNSYPTFGQGTKVEIK
# notes: One-amino acid variant of 4D11-G3; also called IgG3[M358L]; N5KG3-M358L; not shown: human IgG3 heavy chain constant region, from vector N5KG3
# B7: 4D11-G3[N392K] (antibody, V domains shown)
# VH: QLQLQESGPGLLKPSETLSLTCTVSGGSISSPGYYGGWIRQPPGKGLEWIGSIYKSGSTYHNPSLKSRVTISVDTSKNQFSLKLSSVTAADTAVYYCTRPVVRYFGWFDPWGQGTLVTVSS
# VL: AIQLTQSPSSLSASVGDRVTITCRASQGISSALAWYQQKPGKAPKLLIYDASNLESGVPSRFSGSGSGTDFTLTISSLQPEDFATYYCQQFNSYPTFGQGTKVEIK
# notes: One-amino acid variant of 4D11-G3; also called IgG3[N392K]; N5KG3-N392K; not shown: human IgG3 heavy chain constant region, from vector N5KG3
# B8: 4D11-G3[M397V] (antibody, V domains shown)
# VH: QLQLQESGPGLLKPSETLSLTCTVSGGSISSPGYYGGWIRQPPGKGLEWIGSIYKSGSTYHNPSLKSRVTISVDTSKNQFSLKLSSVTAADTAVYYCTRPVVRYFGWFDPWGQGTLVTVSS
# VL: AIQLTQSPSSLSASVGDRVTITCRASQGISSALAWYQQKPGKAPKLLIYDASNLESGVPSRFSGSGSGTDFTLTISSLQPEDFATYYCQQFNSYPTFGQGTKVEIK
# notes: One-amino acid variant of 4D11-G3, made on N5KG3-4D11; also called N5KG3-M397V; 4D11-G[M397V]; not shown: human IgG3 heavy chain constant region, from vector N5KG3-4D11
# B9: 4D11-G3[I422V] (antibody, V domains shown)
# VH: QLQLQESGPGLLKPSETLSLTCTVSGGSISSPGYYGGWIRQPPGKGLEWIGSIYKSGSTYHNPSLKSRVTISVDTSKNQFSLKLSSVTAADTAVYYCTRPVVRYFGWFDPWGQGTLVTVSS
# VL: AIQLTQSPSSLSASVGDRVTITCRASQGISSALAWYQQKPGKAPKLLIYDASNLESGVPSRFSGSGSGTDFTLTISSLQPEDFATYYCQQFNSYPTFGQGTKVEIK
# notes: One-amino acid variant of 4D11-G3; also called IgG3[I422V]; N5KG3-1422V; not shown: human IgG3 heavy chain constant region, from vector N5KG3
# Target: T1, CD40 expressed on Ramos [ATCC] cells (UniProt P25942 21-277, limits assumed)
# T1 construct: whole, on cells; Target of all flow cytometry and CD95 assays; endogenous CD40 on the Ramos cell line
# Experiment: flow cytometry (FACS) on Ramos cells expressing CD40, R-PE anti-human antibody
# T1 sequence (P25942 21-277 limits assumed): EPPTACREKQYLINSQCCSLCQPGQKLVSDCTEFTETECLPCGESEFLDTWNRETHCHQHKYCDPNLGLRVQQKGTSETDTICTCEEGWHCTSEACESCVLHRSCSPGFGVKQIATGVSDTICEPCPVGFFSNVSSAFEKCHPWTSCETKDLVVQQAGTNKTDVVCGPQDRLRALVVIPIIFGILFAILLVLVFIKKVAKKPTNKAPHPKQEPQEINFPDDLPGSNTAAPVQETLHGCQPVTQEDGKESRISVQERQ
row,Binder,binding result
1,B1,binds
2,B2,binds
3,B3,binds
4,B4,binds
5,B5,binds
6,B6,binds
7,B7,binds
8,B8,binds
9,B9,binds
